Assay results as given in article PMC9887757.

Columns and labels:
[1] = target: BKPyV VLP genotype IVc2 (VP1 virus-like particles) (BK polyomavirus) (UniProt P03088); test: ELISA
[2] = target: BKPyV VLP genotype II (VP1 virus-like particles) (BK polyomavirus) (UniProt P03088); test: ELISA
[3] = target: BKPyV VLP genotype III (VP1 virus-like particles) (BK polyomavirus) (UniProt P03088); test: ELISA
[4] = target: BKPyV VLP genotype Ia (VP1 virus-like particles) (BK polyomavirus) (UniProt P03088); test: ELISA
[5] = target: BKPyV VLP genotype IVc2 (VP1 virus-like particles) (BK polyomavirus) (UniProt P03088); test: SPR; avidity
[6] = target: BKPyV VLP genotype II (VP1 virus-like particles) (BK polyomavirus) (UniProt P03088); test: SPR; avidity
[7] = target: BKPyV VLP genotype III (VP1 virus-like particles) (BK polyomavirus) (UniProt P03088); test: SPR; avidity
[8] = target: BKPyV VLP genotype Ia (VP1 virus-like particles) (BK polyomavirus) (UniProt P03088); test: SPR; avidity

Sequence of BKPyV VLP genotype III (VP1 virus-like particles) (BK polyomavirus) (P03088 whole entry, looked up): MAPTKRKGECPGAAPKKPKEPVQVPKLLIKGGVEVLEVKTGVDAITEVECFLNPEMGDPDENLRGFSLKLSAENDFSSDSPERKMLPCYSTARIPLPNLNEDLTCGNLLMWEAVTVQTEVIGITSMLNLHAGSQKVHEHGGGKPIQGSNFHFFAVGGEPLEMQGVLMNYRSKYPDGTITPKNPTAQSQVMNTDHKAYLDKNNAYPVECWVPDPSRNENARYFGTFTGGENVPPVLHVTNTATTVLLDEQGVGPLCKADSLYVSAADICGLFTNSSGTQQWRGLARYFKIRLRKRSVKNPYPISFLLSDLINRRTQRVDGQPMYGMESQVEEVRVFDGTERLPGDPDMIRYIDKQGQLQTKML
Sequence of BKPyV VLP genotype IVc2 (VP1 virus-like particles) (BK polyomavirus) (P03088 whole entry, looked up): as above
Sequence of BKPyV VLP genotype Ia (VP1 virus-like particles) (BK polyomavirus) (P03088 whole entry): as the sequence (P03088 whole entry, looked up) above
Sequence of BKPyV VLP genotype II (VP1 virus-like particles) (BK polyomavirus) (P03088 whole entry, looked up): as above

Row | Substance | EC50 [1] | EC50 [2] | EC50 [3] | EC50 [4] | Kd [5] | Kd [6] | Kd [7] | Kd [8]
1 | antibody 120 (clonotype 120, 41F17-like) (from UniProt P01857) | 0.19 nM | 0.26 nM | 0.24 nM | 0.17 nM | 0.86 nM | 0.16 nM | 0.21 nM | 0.11 nM
2 | antibody 160 (clonotype 160, 41F17-like) (from UniProt P01857) | 0.14 nM | 0.38 nM | 0.13 nM | 0.14 nM | 0.27 nM | 0.28 nM | 0.17 nM | 0.23 nM
3 | antibody 198 (clonotype 198, 41F17-like) (from UniProt P01857) | 0.43 nM | 1.41 nM | 0.9 nM | 0.54 nM | 0.28 nM | 2.29 nM | 0.11 nM | 1.63 nM
